Source: the supplement of paper PMC5998384

Columns and labels:
[1] = tested on: HeLa Kyoto; experiment: solubility change mitosis vs G1/S (difference of NP-40 vs SDS log2 ratios) (log2 ratio difference); higher = more soluble in mitosis
[2] = tested on: HeLa Kyoto; experiment: solubility in G1/S (NP-40 vs SDS abundance) (log2 ratio); higher = more soluble; settings: cell cycle stage: G1/S
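Throughout, for solubility change mitosis vs G1/S (difference of NP-40 vs SDS log2 ratios): synchronized HeLa Kyoto cells (double thymidine block for G1/S, nocodazole release for mitosis), protein amounts in NP-40 versus SDS lysates quantified by mass spectrometry, three biological replicates.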
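Throughout, for solubility in G1/S (NP-40 vs SDS abundance): HeLa Kyoto cells arrested at G1/S by double thymidine block, proteins quantified by TMT10plex mass spectrometry in mild NP-40 versus SDS extracts, three biological replicates.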

Row | Substance | solubility change mitosis (log2) [1] | solubility in G1/S (log2) [2]
1 | MYFLSGWPKRLLCPLGSPAEAPFHVQSDPQRAFFAVLAAARLSIWYSRPSVLIVTYKEPAKSSTQFGSYKQAEWRPDSTMIAVSTANGYILFFHITSTRGDKYLYEPVYPKGSPQMKGTPHFKEEQCAPALNLEMRKILDLQAPIMSLQSVLEDLLVATSDGLLHLIHWEGMTNGRKAINLCTVPFSVDLQSSRVGSFLGFTDVHIRDMEYCATLDGFAVVFNDGKVGFITPVSSRFTAEQLHGVWPQDVVDGTCVAVNNKYRLMAFGCVSGSVQVYTIDNSTGAMLLSHKLELTAKQYPDIWNKTGAVKLMRWSPDNSVVIVTWEYGGLSLWSVFGAQLICTLGGDFAYRSDGTKKDPLKINSMSWGAEGYHLWVISGFGSQNTEIESDLRSVVKQPSILLFQFIKSVLTVNPCMSNQEQVLLQGEDRLYLNCGEASQTQNPRSSSTHSEHKPSREKSPFADGGLESQGLSTLLGHRHWHVVQISSTYLESNWPIRFSAIDKLGQNIAVVGKFGFAHYSLLTKKWKLFGNITQEQNMIVTGGLAWWNDFMVLACYNINDRQEELRVYLRTSNLDNAFAHVTKAQAETLLLSVFQDMVIVFRADCSICLYSIERKSDGPNTTAGIQVLQEVSMSRYIPHPFLVVSVTLTSVSTENGITLKMPQQARGAESIMLNLAGQLIMMQRDRSGPQIREKDSNPNNQRKLLPFCPPVVLAQSVENVWTTCRANKQKRHLLEALWLSCGGAGMKVWLPLFPRDHRKPHSFLSQRIMLPFHINIYPLAVLFEDALVLGAVNDTLLYDSLYTRNNAREQLEVLFPFCVVERTSQIYLHHILRQLLVRNLGEQALLLAQSCATLPYFPHVLELMLHEVLEEEATSREPIPDPLLPTVAKFITEFPLFLQTVVHCARKTEYALWNYLFAAVGNPKDLFEECLMAQDLDTAASYLIILQNMEVPAVSRQHATLLFNTALEQGKWDLCRHMIRFLKAIGSGESETPPSTPTAQEPSSSGGFEFFRNRSISLSQSAENVPASKFSLQKTLSMPSGPSGKRWSKDSDCAENMYIDMMLWRHARRLLEDVRLKDLGCFAAQLGFELISWLCKERTRAARVDNFVIALKRLHKDFLWPLPIIPASSISSPFKNGKYRTVGEQLLKSQSADPFLNLEMDAGISNIQRSQSWLSNIGPTHHEIDTASSHGPQMQDAFLSPLSNKGDECSIGSATDLTESSSMVDGDWTMVDENFSTLSLTQSELEHISMELASKGPHKSQVQLRYLLHIFMEAGCLDWCIVIGLILRESSIINQILVITQSSEVDGEMLQNIKTGLHAVDRWASTDCPGYKPFLNIIKPQLQKLSEITEEQVQPDAFQPITMGKTPEQTSPRAEESRGSSSHGSIPQGEVGSSNMVSRKEEDTAQAEEEEPFQDGTYDCSVS [RIC1] | 0.129 | -0.168
2 | MAKDAGLIEANGELKVFIDQNLSPGKGVVSLVAVHPSTVNPLGKQLLPKTFGQSNVNIAQQVVIGTPQRPAASNTLVVGSPHTPSTHFASQNQPSDSSPWSAGKRNRKGEKNGKGLRHFSMKVCEKVQRKGTTSYNEVADELVAEFSAADNHILPNESAYDQKNIRRRVYDALNVLMAMNIISKEKKEIKWIGLPTNSAQECQNLEVERQRRLERIKQKQSQLQELILQQIAFKNLVQRNRHAEQQASRPPPPNSVIHLPFIIVNTSKKTVIDCSISNDKFEYLFNFDNTFEIHDDIEVLKRMGMACGLESGSCSAEDLKMARSLVPKALEPYVTEMAQGTVGGVFITTAGSTSNGTRFSASDLTNGADGMLATSSNGSQYSGSRVETPVSYVGEDDEEDDDFNENDEDD [TFDP1] | -0.176 | 0.136
3 | PRR14L | 0.0491 | -0.0161
4 | BCORL1 | 0.348 | -0.267
5 | MAWWKAWIEQEGVTVKSSSHFNPDPDAETLYKAMKGIGTNEQAIIDVLTKRSNTQRQQIAKSFKAQFGKDLTETLKSELSGKFERLIVALMYPPYRYEAKELHDAMKGLGTKEGVIIEILASRTKNQLREIMKAYEEDYGSSLEEDIQADTSGYLERILVCLLQGSRDDVSSFVDPALALQDAQDLYAAGEKIRGTDEMKFITILCTRSATHLLRVFEEYEKIANKSIEDSIKSETHGSLEEAMLTVVKCTQNLHSYFAERLYYAMKGAGTRDGTLIRNIVSRSEIDLNLIKCHFKKMYGKTLSSMIMEDTSGDYKNALLSLVGSDP [ANXA8L1] | -0.077 | 0.415
6 | MSGGLAPSKSTVYVSNLPFSLTNNDLYRIFSKYGKVVKVTIMKDKDTRKSKGVAFILFLDKDSAQNCTRAINNKQLFGRVIKASIAIDNGRAAEFIRRRNYFDKSKCYECGESGHLSYACPKNMLGEREPPKKKEKKKKKKAPEPEEEIEEVEESEDEGEDPALDSLSQAIAFQQAKIEEEQKKWKPSSGVPSTSDDSRRPRIKKSTYFSDEEELSD [ZCRB1] | 0.122 | 0.0915
7 | MEPRAAAAGEPEPPAASSSFQARLWKNLQLGVGRSKGGGGGRAGGPERRTADTPSPSPPPPVGTGNAPARGSGAGSRWSGFKKRKQVLDRVFSSSQPNLCCSSPEPLEPGGAGRAEQGSTLRRRIREHLLPAVKGPAAASGAAGGTPPGGRSPDSAPSSSSASSSLSSSPQPPPRGDRARDEGARRQGPGAHLCHQKSSSLPGTACLEQLLEPPPPPAEPARSPAESRAPETGEEHGSSQKIINTAGTSNAEVPLADPGMYQLDITLRRGQSLAARDRGGTSDPYVKFKIGGKEVFRSKIIHKNLNPVWEEKACILVDHLREPLYIKVFDYDFGLQDDFMGSAFLDLTQLELNRPTDVTLTLKDPHYPDHDLGIILLSVILTPKEGESRDVTMLMRKSWKRSSKELSENEVVGSYFSVKSLFWRTCGRPALPVLGFCRAELQNPYCKNVQFQTQSLRLSDLHRKSHLWRGIVSITLIEGRDLKAMDSNGLSDPYVKFRLGHQKYKSKIMPKTLNPQWREQFDFHLYEERGGVIDITAWDKDAGKRDDFIGRCQVDLSALSREQTHKLELQLEEGEGHLVLLVTLTASATVSISDLSVNSLEDQKEREEILKRYSPLRIFHNLKDVGFLQVKVIRAEGLMAADVTGKSDPFCVVELNNDRLLTHTVYKNLNPEWNKVFTFNIKDIHSVLEVTVYDEDRDRSADFLGKVAIPLLSIQNGEQKAYVLKNKQLTGPTKGVIYLEIDVIFNAVKASLRTLIPKEQKYIEEENRLSKQLLLRNFIRMKRCVMVLVNAAYYVNSCFDWDSPPRSLAAFVLFLFVVWNFELYMIPLVLLLLLTWNYFLIISGKDNRQRDTVVEDMLEDEEEEDDKDDKDSEKKGFINKIYAIQEVCVSVQNILDEVASFGERIKNTFNWTVPFLSWLAIVALCVFTAILYCIPLRYIVLVWGINKFTKKLRSPYAIDNNELLDFLSRVPSDVQVVQYQELKPDPSHSPYKRKKNNLG [MCTP1] | -0.196 | 0.0529
8 | NSA2 | 1.41 | -2.43
9 | MVSDEDELNLLVIVVDANPIWWGKQALKESQFTLSKCIDAVMVLGNSHLFMNRSNKLAVIASHIQESRFLYPGKNGRLGDFFGDPGNPPEFNPSGSKDGKYELLTSANEVIVEEIKDLMTKSDIKGQHTETLLAGSLAKALCYIHRMNKEVKDNQEMKSRILVIKAAEDSALQYMNFMNVIFAAQKQNILIDACVLDSDSGLLQQACDITGGLYLKVPQMPSLLQYLLWVFLPDQDQRSQLILPPPVHVDYRAACFCHRNLIEIGYVCSVCLSIFCNFSPICTTCETAFKISLPPVLKAKKKKLKVSA [GTF2H3] | 0.117 | -0.126
10 | MTAVNVALIRDTKWLTLEVCREFQRGTCSRADADCKFAHPPRVCHVENGRVVACFDSLKGRCTRENCKYLHPPPHLKTQLEINGRNNLIQQKTAAAMFAQQMQLMLQNAQMSSLGSFPMTPSIPANPPMAFNPYIPHPGMGLVPAELVPNTPVLIPGNPPLAMPGAVGPKLMRSDKLEVCREFQRGNCTRGENDCRYAHPTDASMIEASDNTVTICMDYIKGRCSREKCKYFHPPAHLQARLKAAHHQMNHSAASAMALQPGTLQLIPKRSALEKPNGATPVFNPTVFHCQQALTNLQLPQPAFIPAGPILCMAPASNIVPMMHGATPTTVSAATTPATSVPFAAPTTGNQLKF [MBNL3] | 0.156 | 0.0798
11 | MSRSGAAAEKADSRQRPQMKVNEYKENQNIAYVSLRPAQTTVLIKTAKVYLAPFSLSNYQLDQLMCPKSLSEKNSNNEVACKKTKIKKTCRRIIPPKMKNTSSKAESTLQNSSSAVHTESNKLQPKRTADAMNLSVDVESSQDGDSDEDTTPSLDFSGLSPYERKRLKNISENADFFASLQLSESAARLREMIEKRQPPKSKRKKPKRENGIGCRRSMRLLKVDPSGVSLPAAPTPPTLVADETPLLPPGPLEMTSENQEDNNERFKGFLHTWAGMSKPSSKNTEKGLSSIKSYKANLNGMVISEDTVYKVTTGPIFSMALHPSETRTLVAVGAKFGQVGLCDLTQQPKEDGVYVFHPHSQPVSCLYFSPANPAHILSLSYDGTLRCGDFSRAIFEEVYRNERSSFSSFDFLAEDASTLIVGHWDGNMSLVDRRTPGTSYEKLTSSSMGKIRTVHVHPVHRQYFITAGLRDTHIYDARRLNSRRSQPLISLTEHTKSIASAYFSPLTGNRVVTTCADCNLRIFDSSCISSKIPLLTTIRHNTFTGRWLTRFQAMWDPKQEDCVIVGSMAHPRRVEIFHETGKRVHSFGGEYLVSVCSINAMHPTRYILAGGNSSGKIHVFMNEKSC [WDR76] | 1.15 | -1.61
12 | MAAQIPESDQIKQFKEFLGTYNKLTETCFLDCVKDFTTREVKPEETTCSEHCLQKYLKMTQRISMRFQEYHIQQNEALAAKAGLLGQPR [TIMM9] | 0.239 | -0.307
13 | MAVTAQAARRKERVLCLFDVDGTLTPARQKIDPEVAAFLQKLRSRVQIGVVGGSDYCKIAEQLGDGDEVIEKFDYVFAENGTVQYKHGRLLSKQTIQNHLGEELLQDLINFCLSYMALLRLPKKRGTFIEFRNGMLNISPIGRSCTLEERIEFSELDKKEKIREKFVEALKTEFAGKGLRFSRGGMISFDVFPEGWDKRYCLDSLDQDSFDTIHFFGNETSPGGNDFEIFADPRTVGHSVVSPQDTVQRCREIFFPETAHEA [PMM1] | 0.102 | 0.195
14 | MAAGAGAGSAPRWLRALSEPLSAAQLRRLEEHRYSAAGVSLLEPPLQLYWTWLLQWIPLWMAPNSITLLGLAVNVVTTLVLISYCPTATEEAPYWTYLLCALGLFIYQSLDAIDGKQARRTNSCSPLGELFDHGCDSLSTVFMAVGASIAARLGTYPDWFFFCSFIGMFVFYCAHWQTYVSGMLRFGKVDVTEIQIALVIVFVLSAFGGATMWDYTIPILEIKLKILPVLGFLGGVIFSCSNYFHVILHGGVGKNGSTIAGTSVLSPGLHIGLIIILAIMIYKKSATDVFEKHPCLYILMFGCVFAKVSQKLVVAHMTKSELYLQDTVFLGPGLLFLDQYFNNFIDEYVVLWMAMVISSFDMVIYFSALCLQISRHLHLNIFKTACHQAPEQVQVLSSKSHQNNMD [CHPT1] | -0.173 | -0.277
15 | PDCD11 | 1.53 | -2.88
